Measurements as given in article PMC5607099 (Molecular microbiology, 2017).
Ends that are not written are not given here. * marks the point of attachment. Biotin = O=C1N[C@H]2[C@H](CS[C@H]2CCCCC(=O)*)N1

What was measured:
[1] = target: His-tagged BamA (purified recombinant) (E. coli, UniProt P0A940 21-810); assay: peptide or protein array
[2] = target: T1, His-tagged TamA (purified recombinant) (E. coli, UniProt P0ADE4 22-577); assay: peptide or protein array
T1 sequence (looked up): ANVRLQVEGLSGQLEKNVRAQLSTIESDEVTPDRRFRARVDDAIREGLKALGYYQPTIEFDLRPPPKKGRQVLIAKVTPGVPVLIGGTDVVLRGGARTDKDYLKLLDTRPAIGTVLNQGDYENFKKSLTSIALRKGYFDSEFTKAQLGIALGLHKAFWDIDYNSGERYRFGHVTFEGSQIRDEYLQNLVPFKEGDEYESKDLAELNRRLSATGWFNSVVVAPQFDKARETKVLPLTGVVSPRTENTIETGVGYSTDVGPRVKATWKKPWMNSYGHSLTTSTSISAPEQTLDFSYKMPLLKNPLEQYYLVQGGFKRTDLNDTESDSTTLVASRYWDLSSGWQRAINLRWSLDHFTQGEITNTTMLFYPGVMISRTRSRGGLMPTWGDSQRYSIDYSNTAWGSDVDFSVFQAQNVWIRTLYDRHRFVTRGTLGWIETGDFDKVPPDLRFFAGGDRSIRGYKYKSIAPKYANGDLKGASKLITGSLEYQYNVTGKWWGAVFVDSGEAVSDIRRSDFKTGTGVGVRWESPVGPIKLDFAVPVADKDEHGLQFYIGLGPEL

semi-native SDS-PAGE = target: the molecule itself; assay: semi-native SDS-PAGE
[3] = target: T1, His-tagged TamA (purified recombinant); assay: cross-linking

Question: Does GGNSHYAYLNLQSGLNIGAA [FimD peptide 2 (β-strand 2)] bind [1]?
Answer: Result: binds

Question: Does GGYGNANIGYSHSDDIKQSA [FimD peptide 23 (β-strand 23)] bind [2]?
Answer: Result: binds

Question: Does FDGINFRGAQLASDDNMLSA [FimD peptide 6 (β-strand 6), on the array] bind [2]?
Answer: Result: binds

Question: Does INAGLLNYNFSGNSVQNRSA [FimD peptide 1 (β-strand 1)] bind [1]?
Answer: Result: binds

B1: His-tagged OmpF (natural protein, UniProt P02931 23-362, looked up)
chain: AEIYNKDGNKVDLYGKAVGLHYFSKGNGENSYGGNGDMTYARLGFKGETQINSDLTGYGQWEYNFQGNNSEGADAQTGNKTRLAFAGLKYADVGSFDYGRNYGVVYDALGYTDMLPEFGGDTAYSDDFFVGRVGGVATYRNSNFFGLVDGLNFAVQYLGKNERDTARRSNGDGVGGSISYEYEGFGIVGAYGAADRTNLQEAQPLGNGKKAEQWATGLKYDANNIYLAANYGETRNATPITNKFTNTSGFANKTQDVLLVAQYQFDFGLRPSIAYTKSKAKDVEGIGDVDLVNYFEVGATYYFNKNMSTYVDYIINQIDSDNKLGVGSDDTVAVGIVYQF
Question: With B1 as the binder, how does the “stoichiometry N” value (semi-native SDS-PAGE) read?
Answer: Its value is 3.

Question: Does Biotin-FDGINFRGAQLASDDNMLK [Biotin-FDGINFRGAQLASDDNMLK (FimD peptide 6 with N-terminal biotin and C-terminal lysine)] bind [3]?
Answer: Result: binds
